In patent US20230295281A1:

How the values were obtained:
[1] = target: oxidized LDL (oxidized low-density lipoprotein) (UniProt P04114); test: competition ELISA on coated oxLDL; wells preincubated with Pentaglobin; competitor: IgG autoantibodies of COVID-19 sera
[2] = target: oxidized LDL (oxidized low-density lipoprotein) (UniProt P04114); test: competition ELISA on coated oxLDL; wells preincubated with Pentaglobin; competitor: IgA autoantibodies of COVID-19 sera

percent inhibition of autoantibody binding to oxLDL [1]: > 20%
percent inhibition of autoantibody binding to oxLDL [2]: > 20%
Substance: Pentaglobin (human polyclonal immunoglobulin infusion preparation enriched for IgM and IgA)
